Results reported in the DeepSol protein solubility set.

assay: soluble on expression in E. coli; label from the status in PepcDB or PDB records

Sequence	soluble on expression in E. coli
MQQPEQYCRFLCLVAHEFFHLWNIKRIRPQAFEVFDYDSENYTTSLWFVEGVTSYFDQLIPLWAGLFDAPTYLKLLSDSLNRYFHTPGRFVQSLSAASFDAWIKLYRPDENSINSQMSYYLKGELVALLLDLRLEHHHHHH	not soluble
MQQPVINQQPGYNPQGMNPVQQFEMHQQQHQQAITTQPGVFVQPAPGSVWMPMPPAIQGVPTGLEYLTYLDTIMVHQIKELIEIVTDWETKNKYVLKNANGEQCYYAFEESGCCERQCCGPQRGFVMHIVDNFKREVLTIKREFKCCGGGCCGCLACIGCCQQECIIETPSMGVLGIIRQRCGCMSSNYDIMDGDGNVIFQIDGPCCCMLCGCQDKEFPIKTANNGTVVGAITKKWGGCFREAFTDADTFAVNFPGDLDVKLKGVLIGATFLIDFMEFEQQSQNRNNGGAYYSSS	not soluble
MQQRRPVRRALLSVSDKAGIVEFAQALSARGVELLSTGGTARLLAEKGLPVTEVSDYTGFPEMMDGRVKTLHPKVHGGILGRRGQDDAIMEEHQIQPIDMVVVNLYPFAQTVAREGCSLEDAVENIDIGGPTMVRSAAKNHKDVAIVVKSSDYDAIIKEMDDNEGSLTLATRFDLAIKAFEHTAAYDSMIANYFGSMVPAYHGESKEAAGRFPRTLNLNFIKKLDMRYGENSHQQAAFYIEENVKEASVATATQVQGKALSYNNIADTDAALECVKEFAEPACVIVKHANPCGVAIGNSILDAYDRAYKTDPTSAFGGIIAFNRELDAETAQAIISRQFVEVIIAPSASEEALKITAAKQNVRVLTCGQWGERVPGLDFKRVNGGLLVQDRDLGMVGAEELRVVTKRQPSEQELRDALFCWKVAKFVKSNAIVYAKNNMTIGIGAGQMSRVYSAKIAGIKAADEGLEVKGSSMASDAFFPFRDGIDAAAAAGVTCVIQPGGSIRDDEVIAAADEHGIAMLFTDMRHFRH	soluble
MQREQTKVFKRVAGIKDKAAIKTLISAAYRQIFERDIAPYIAQNEFSGWESKLGNGEITVKEFIEGLGYSNLYLKEFYTPYPNTKVIELGTKHFLGRAPIDQAEIRKYNQILATQGIRAFINALVNSQEYNEVFGEDTVPYRRFPTLPALEHHHHHH	soluble
MQRHPTPNARNSLWRWTDAKHPLRVALNYVVIVLARISPSLHAKNWLLARIGVTVGDGVAWGLESTPDVFWPELVTVGDDAIIGYDATLLCHEFLHDEYRTGAVVVEDRAMIGAGAVVLPGVTIGADAQVAANSLVTADVPPGETVAGVPLEHHHHHH	not soluble
MQRVGNTFSNESRVASRCPSVGLAERNRVATMPVRLLRDSPAAQEDNDHARDGFQMKLDAHGFAPEELVVQVDGQWLMVTGQQQLDVRDPERVSYRMSQKVHRKMLPSNLSPTAMTCCLTPSGQLWVRGQCVALALPEAQTGPSPRLGSLGSKASNLTR	soluble
MQSNTPQPNPAPFLKAGETVVLFDGVCKLCNGWAKFIIRHDRRQRIRLATVQSPEGQALLEWAGLPLDRFDTMAAVTGDRLYVRSEAFFVALSDFPAPWRWLRVLRFFPAVIRDWLYDRIALNRYRLFGRYDSCLLPTPDHERRFLKASPLEHHHHHH	soluble
MQSVDVAIVGGGMVGLAVACGLQGSGLRVAVLEQRVPEPLAVDALPQLRVSAINAASEKLLTRLGVWQDILARRASCYHGMEVWDKDSFGHISFDDQSMGYSHLGHIVENSVIHYALWNKAQQSSDITLLAPTELQQVAWGENETFLTLKDGSMLTARLVIGADGANSWLRNKADIPLTFWDYQHHALVATIRTEEPHDAVARQVFHGEGILAFLPLSDPHLCSIVWSLSPEEAQRMQQASEDEFNRALNIAFDNRLGLCKVESARQVFPLTGRYACQFAAHRLALVGDAAHTIHPLAGQGVNLGFMDAAELIAELKRLHRQGKDIGQYIYLRRYERSRKHSAALMLAGMQGFRDLFSGANPAKKLLRDIGLKLADTLPGVKPQLIRQAMGLNDLPEWLRLEHHHHHH	soluble
MQTLKYISGYSPDIQRQVQQLLESGKLGDVLLRRHPQVHEIRSDKALYDYTQGIKNQFLRQSSPLSKVIFDDKISMSHHALGLHSYVARVQGNKIKAKNEIRISSRLKRVPEPLLRMVVVHELAHLKEKDHNKAFYNLCTYMEPDYHQFEFDLRLLLTCIDANQSPYATNSINLEHHHHHH	soluble
MQTVIFGRSGCPYSVRAKDLAEKLSNERDDFQYQYVDIRAEGITKEDLQQKAGKPVETVPQIFVDQQHIGGYTDFAAWVKENLDA	soluble
MQVINLKYPVALSQIPEGPIVLALGFFDGVHRGHQQVVATARQAAQAQHAKLAVMTFDQHPSVVFKHTDPQQVRYLTTIDQKTALMSELGVDILYVLHFDATVGAMPPQTFVDQLIVGLHAQTVVAGFDYTYGPAEIANMQRLNDYGHNRFEIIEVPKAELDAEKISSTRIRRALDAGDIDTANRLLGYQYETAGEVVHGEARGRTLGFPTANVAHGPNTRVPGIGIYATMVQIGTRWVMGMASVGRNVTFGDHRPITVEIYLLDFRGDLYGHNLTVRWGHRMRGEIKFAGADALVAQLKRDEQNTRDYYVAHPFVVAPRIQVAQQSNRLEAQ	not soluble
MQWQTKLPLIAILRGITPDEALAHVGAVIDAGFDAVEIPLNSPQWEQSIPAIVDAYGDKALIGAGTVLKPEQVDALARMGCQLIVTPNIHSEVIRRAVGYGMTVCPGCATATEAFTALEAGAQALKIFPSSAFGPQYIKALKAVLPSDIAVFAVGGVTPENLAQWIDAGCAGAGLGSDLYRAGQSVERTAQQAAAFVKAYREAVQLHHHHHH	soluble
MQYVKIKDAIVEQIDAGMLMPRQKLPAERKLAESFDTTRVTLREALSLLEAEGKIYREDRRGWFISPAPLRYDPTQTLNFTNMALAQNRQPKTELVSAKAVIANKQATRLLKLKPFSDVYRVDRVRYLDNRPVVYVTNYIRPELFPNLLDFDLSQSLTDLYREHYATQYQTIHYRISTSSLLGEMAQALRATSGTPAMVVERVNYNQKGELIDCDIEYWRHDAITIESIAELKR	not soluble
MRADGRSSCELRPVHIHPHYMKHAEGSVLIEIGDTKVICTATVEEKVPSFMRGGGKGWITAEYGMLPRATEQRNVREASKGKVSGRTMEIQRLIGRALRSVVDLEQLGERTIWIDCDVIQADGGTRTASITGAYVALVLALAKLVEEGKLEALPIRDFLAATSVGIDPEHGVILDLDYNEDARAKVDMNVVMTGAGQFVEIQGTGEEAVFSRAELDELLEAAQIGIEQLIAVQRRALGEWAARIGEKKEAAEEDTE	not soluble
MRALIRYEDVPSKLWTLPKMTDFWGIGKRTEKRLNKLGISSIKELTNADPLLLKQKLGTIGLQHFFHANGIDESNVRLEHHHHHH	not soluble
MRAQDLPPLPETPGVYLWKRGEEVLYVGKAKSLRARVKSYFHAEGKARRIAEEATGLDFIATRDEVEALLLEANLIKAHRPLYNVLLKDDKHYPFLKLTNEPFPTLLVVRRVEEDGAKYYGPFPEAGALRRIKTLIDRLFPLRKNSGYPMKRRRYPCLNYSMGRCLAPCVGKADPEAYQEVVRQVEAVLEGRVDGLLQELEAKMREAARRLEFERAAEIRDQMEALRAFFSTDQQAFDPEMGDLDFLGMARSGALAVVQLYQVRSGRILGRISRVVEKEEATDEEILWAFLRDHYLEASPLPPLVLLPFPLEDLESLAELLKRRAGRKVELRVPKKGEKARLLELAERNARLALETELKLRERRGEHPALKALQDLLGLPARPWRLEGYDISHLQGQARVFSIAVFEGGRPKRQEYRRMRLKAGNDDYAAMEEGVFRRYTGSLKDLPLPDLLLIDGGVGQVRAAARALERAGLRLPLVGLAKGEEVLVTPEGRELRLPLTHPALQLLIHLRDEAHQNGLRYHRKRRSEELFRVLQGIPGIGEKRRRLLLERYGGLRALKEAPLEELARLPGMSLEAARALKAALAEEEPA	soluble
MRARSSLSAGQREELVALFEQGYSYWAAAHHVGVGVYPVRALFRRFLLHGKLCLVEKPSKQQYSFEIKKEVVQRHLAGESKMDLAREFGLSSDQMVGYWSRKWRKGGDDALKLKPKGRPKGSAKPKVLTEEDKLRRENERLRAENAYLKKLRDLKNQGHALEHHHHHH	not soluble
MRCGIAGLCARAKKVLGEDPAGGTLLVFRGRMGDRLKILHWDGQDFCLYYKVLERGHFPWPKATEGKVALTPAQMAMLWEGIDWRQPRWTSAPTRM	not soluble
MRDYATTAAGFDLQRTAAATLSGTLQALNACVECCDRHALPGRIALFWEGKDGSRASYTFSELKALSGRFANFLQAQGVRPGDCVAGLLPRTPELLVTILGAWRLGAVYQPLFTAFGPKAIEHRVATAGSKVLVTDAANRDKLDELADPPLAVTVGGPKGQGIRRGDFSFWAELERYPAEFEPVPRSGEDPFLMMFTSGTTGLAKPVPVPLKAILAFVGYLREAVDLRPEDAFWNLADPGWAYGLYYAVAGPLAMGHPTTFYEGPFSVESTCRIIRDYGITNLAGSPTAYRLLMAAGAAAETALKGRLRAVSSAGEPLTPEVIRWFADRLGTTIHDHYGQTELGMVLCNHHALAHPVRVGAAGFACPGHRVVVLDDDLNELPPGQPGILALDRRRSPLMWFPGYQGLETAAFVGDYYLSGDTVELNEDGSISFVGRADDVITTSGYRVGPFDVESALIEHPAVMEAAVIGKPDPERTELVKAFVVLCAGHRPTPELADALQRYVRQRLSAHAYPREIEFLEELPKTPSGKIQRFLLRNQEIARQREAAPRAAAAN	not soluble
MRDYKQLNGLALAYVGDAIYEIYIRDYLVSLGQTKPNVLHRMATHYVSAKAQASLMQAMLAGEMLTEEEEVMYKRGRNAKSHTFAKNADVTTYRVATGFESLMGYLHLTQQKERLEELINWCIKKVGETNEK	not soluble
MREAVIVAGARTPIGKAKRGSLKTVRPDDLGALVVKETLKRANYEGPIDDLIFGCAMPEAEQGLNMARNIGGLAGLSYDVPAITINRYCSSGLQSIAYGAERIMLGHSEAVLSGGAESMSLVPMMGHVVRPNSRLVEAAPEYYMGMGHTAEQVAVKYGISREEQDAFAVRSHQRAAKALAAGNFADETVSVDVTLRTVGANNKLQEETITFAQDEGVRAETTLDILGKLRPAFNVRGSVTAGNSSQMSDGAASVLLMDREKAVSDGMKPLAKFRSFAVAGVPPEVMGIGPIAAIPKALKLAGLELSDIGLFELNEAFASQSIQVIRELGLDEEKVNVNGGAIALGHPLGCTGAKLTLSLIHEMKRRNEQFGIVTMCIGGGMGAAGVFELL	not soluble
MREINMILYIHIPFCENKCGYCAFNSYENKHGLKEEYTQALCLDLKHALSQTDEPIESVFIGGGTPNTLSVKAFERIFESIYQHASLSLDCEITTEANPELITKAWCQGLKGLGINRLSLGVQSFREDKLLFLERQHSKNIAPAIETILKSGIENISIDLIYNTPLDNENSLKEELKLAKELPINHLSAYALSVEKNTNLEKNAKKPSCAHFDNVVREILEGFSFKQYEVSNYARNYQVKHNLAYWGAKDYLGCGAGAVGCVANERFFAKKLIENYIKDPLQRQVETLNKQDKRLEKLFLGLRCVLGVELSFLDENKVKFLIEENKAFIKNNRLIASDFFMADEMALWLLLEHHHHHH	not soluble
MRFAPFTRQRHHNREQIKQHPEWFPAPLKASDRRWQALAENNHFLSSDHLHNITEVAIHRLEQQLGKPYVWGGTRPDQGFDCSGLVFYAYNKILEAKLPRTANEMYHYRRATIVANNDLRRGDLLFFHIHSREIADHMGGYLGDGQFIESLRTGETIRVSRLAEPFWQDHFLGARRILTEEMIL	not soluble
